From patent US20080274976A1 (UNIVERSITY OF UTAH RESEARCH FOUNDATION, published 2008) come the findings set out here.

Values joined by “and” are separate entries in the source; they are usually repeats but may differ in a detail not shown here. Equal entries are not always repeated.

The target in assay [1] is κM-conotoxin RIIIK (Conus radiatus). As to the kind of experiment: voltage clamp of channels expressed in Xenopus oocytes.
For assay [2] the target is unchanged.

B1: Shaker K+ channel, wild type (other)
chain: MAAVAGLYGLGEDRQHRKKQQQQQQHQKEQLEQKEEQKKIAERKLQLREQQLQRNSLDGYGSLPKLSSQDEEGGAGHGFGGGPQHFEPIPHDHDFCERVVINVSGLRFETQLRTLNQFPDTLLGDPARRLRYFDPLRNEYFFDRSRPSFDAILYYYQSGGRLRRPVNVPLDVFSEEIKFYELGDQAINKFREDEGFIKEEERPLPDNEKQRKVWLLFEYPESSQAARVVAIISVFVILLSIVIFCLETLPEFKHYKVFNTTTNGTKIEEDEVPDITDPFFLIETLCIIWFTFELTVRFLACPNKLNFCRDVMNVIDIIAIIPYFITLATVVAEEEDTLNLPKAPVSPQDKSSNQAMSLAILRVIRLVRVFRIFKLSRHSKGLQILGRTLKASMRELGLLIFFLFIGVVLFSSAVYFAEAGSENSFFKSIPDAFWWAVVTMTTVGYGDMTPVGVWGKIVGSLCAIAGVLTIALPVPVIVSNFNYFYHRETDQEEMQSQNFNHVTSCPYLPGTLGQHMKKSSLSESSSDMMDLDDGVESTPGLTETHPGRSAVAPFLGAQQQQQQPVASSLSMSIDKQLQHPLQQLTQTQLYQQQQQQQQQQQNGFKQQQQQTQQQLQQQQSHTINASAAAATSGSGSSGLTMRHNNALAVSIETDV
notes: whole, on cells
Take B1: the binding result with κM-conotoxin RIIIK [1] is “binds”.

B2: Shaker-Δ6-46 K+ channel (other)
chain: MAAVALREQQLQRNSLDGYGSLPKLSSQDEEGGAGHGFGGGPQHFEPIPHDHDFCERVVINVSGLRFETQLRTLNQFPDTLLGDPARRLRYFDPLRNEYFFDRSRPSFDAILYYYQSGGRLRRPVNVPLDVFSEEIKFYELGDQAINKFREDEGFIKEEERPLPDNEKQRKVWLLFEYPESSQAARVVAIISVFVILLSIVIFCLETLPEFKHYKVFNTTTNGTKIEEDEVPDITDPFFLIETLCIIWFTFELTVRFLACPNKLNFCRDVMNVIDIIAIIPYFITLATVVAEEEDTLNLPKAPVSPQDKSSNQAMSLAILRVIRLVRVFRIFKLSRHSKGLQILGRTLKASMRELGLLIFFLFIGVVLFSSAVYFAEAGSENSFFKSIPDAFWWAVVTMTTVGYGDMTPVGVWGKIVGSLCAIAGVLTIALPVPVIVSNFNYFYHRETDQEEMQSQNFNHVTSCPYLPGTLGQHMKKSSLSESSSDMMDLDDGVESTPGLTETHPGRSAVAPFLGAQQQQQQPVASSLSMSIDKQLQHPLQQLTQTQLYQQQQQQQQQQQNGFKQQQQQTQQQLQQQQSHTINASAAAATSGSGSSGLTMRHNNALAVSIETDV
As usually defined, the Kd is the constant that tells how readily two partners part at equilibrium. With B2, in the assay with κM-conotoxin RIIIK [2], the Kd is 3330 nM and 1260 nM.
